{"source": "paper PMC11996858", "about": "“Cathepsin K cleavage of angiopoietin-2 creates detrimental Tie2 antagonist fragments in sepsis” (The Journal of Clinical Investigation, 2025)", "target": "the molecule itself", "assay": "non-reducing SDS-PAGE with Western blot; recombinant ANGPT2 incubated with CM-Mq^Veh or CM-Mq^LPS (serum-free conditioned media of RAW264.7 cells), then SDS-PAGE under nonreducing conditions against reduced conditions (10% beta-mercaptoethanol) and Western analysis for ANGPT2", "data": [{"protein": "recombinant human angiopoietin-2, full length (ligand, UniProt O15123 19-496, looked up, angiopoietin-2 (ANGPT2), human, recombinant full-length protein of about 75 kDa (glycosylated); As a secreted recombinant protein it probably lacks the signal peptide (surmised); also called ANGPT2; full-length ANGPT2; source: bought: R&D Systems) YNNFRKSMDSIGKKQYQVQHGSCSYTFLLPEMDNCRSSSSPYVSNAVQRDAPLEYDDSVQRLQVLENIMENNTQWLMKLENYIQDNMKKEMVEIQQNAVQNQTAVMIEIGTNLLNQTAEQTRKLTDVEAQVLNQTTRLELQLLEHSLSTNKLEKQILDQTSEINKLQDKNSFLEKKVLAMEDKHIIQLQSIKEEKDQLQVLVSKQNSIIEELEKKIVTATVNNSVLQKQQHDLMETVNNLLTMMSTSNSAKDPTVAKEEQISFRDCAEVFKSGHTTNGIYTLTFPNSTEEIKAYCDMEAGGGGWTIIQRREDGSVDFQRTWKEYKVGFGNPSGEYWLGNEFVSQLTNQQRYVLKIHLKDWEGNEAYSLYEHFYLSSEELNYRIHLKGLTGTAGKISSISQPGNDFSTKDGDNDKCICKCSQMLTGGWWFDACGPSNLNGMYYPQRQNTNKFNGIKWYYWKGSGYSLKATTMMIRPADF", "values": [{"measurement": "stoichiometry N", "value": "≥ 2"}]}]}
